Sequences and labels used below:
B1: human p75 neurotrophin receptor, full length, expressed on HEK 293 cells (receptor)
chain: KEACPTGLYTHSGECCKACNLGEGVAQPCGANQTVCEPCLDSVTFSDVVSATEPCKPCTECVGLQSMSAPCVEADDAVCRCAYGYYQDETTGRCEACRVCEAGSGLVFSCQDKQNTVCEECPDGTYSDEANHVDPCLPCTVCEDTERQLRECTRWADAECEEIPGRWITRSTPPEGSDSTAPSTQEPEAPPEQDLIASTVAGVVTTVMGSSQPVVTRGTTDNLIPVYCSILAAVVVGLVAYIAFKRWNSCKQNKQGANSRPVNQTPPPEGEKLHSDSGISVDSQSLHDQQPHTQTASGQALKGDGGLYSSLPPAKREEVEKLLNGSAGDTWRHLAGELGYQPEHIDSFTHEACPVRALLASWATQDSATLDALLAALRRIQRADLVESLCSESTATSPV
notes: Full-length human p75 with a cytosolic fluorescent tag (GFP); also called p75NTR; NGFR
B5: p75NTR-mIgG2a (Fc fusion)
chain: KEACPTGLYTHSGECCKACNLGEGVAQPCGANQTVCEPCLDSVTFSDVVSATEPCKPCTECVGLQSMSAPCVEADDAVCRCAYGYYQDETTGRCEACRVCEAGSGLVFSCQDKQNTVCEECPDGTYSDEANHVDPCLPCTVCEDTERQLRECTRWADAECEEIPGRWITRSTPPEGSDSTAPSTQEPEAPPEQDLIASTVAGVVTTVMGSSQPVVTRGTTDN
notes: Full-length ectodomain; also called p75-mIgG2A; recombinant p75 mIgG2a; not shown: C-terminal mIgG2a-His10 Fc domain

One experiment addresses T1, human B7-1 N82E on cells (Homo sapiens, UniProt P33681 35-280).
T1 construct: C-terminally fused to mCherry; also called ASN82 GLU
T1 chain: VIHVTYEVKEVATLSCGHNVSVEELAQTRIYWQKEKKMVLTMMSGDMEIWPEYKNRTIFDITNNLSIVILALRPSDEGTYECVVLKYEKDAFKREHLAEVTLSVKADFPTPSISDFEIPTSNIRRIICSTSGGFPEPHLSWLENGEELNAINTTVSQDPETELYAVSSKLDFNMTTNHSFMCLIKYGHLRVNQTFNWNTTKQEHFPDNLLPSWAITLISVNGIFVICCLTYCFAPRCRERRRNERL
The experiment in a line: cell-cell binding, flow cytometry; percent of the wild-type pair.

Experiment [1] deals with T2, human B7-1 K120D on cells (Homo sapiens, UniProt P33681 35-280).
T2 construct: mCherry-tagged point mutant; also called LYS120 ASP
T2 chain: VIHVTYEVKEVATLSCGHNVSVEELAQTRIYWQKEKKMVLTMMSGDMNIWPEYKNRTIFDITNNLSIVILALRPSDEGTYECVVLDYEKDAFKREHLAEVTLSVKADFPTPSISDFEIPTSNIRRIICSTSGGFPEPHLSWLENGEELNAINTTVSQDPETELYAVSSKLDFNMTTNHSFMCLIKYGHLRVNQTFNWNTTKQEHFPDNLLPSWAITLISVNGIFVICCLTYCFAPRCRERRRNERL
The experiment is described as above.

Experiment [2] deals with T3, human B7-1 K139D on cells (Homo sapiens, UniProt P33681 35-280).
T3 construct: mCherry-tagged point mutant; also called LYS139ASP; LYS139 ASP
T3 chain: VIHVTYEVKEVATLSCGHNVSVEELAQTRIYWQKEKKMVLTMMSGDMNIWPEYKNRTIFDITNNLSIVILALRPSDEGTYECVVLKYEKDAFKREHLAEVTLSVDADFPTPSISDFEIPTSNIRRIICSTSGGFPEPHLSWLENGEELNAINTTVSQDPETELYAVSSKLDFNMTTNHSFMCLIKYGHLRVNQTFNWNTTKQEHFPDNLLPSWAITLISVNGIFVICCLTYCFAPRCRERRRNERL
Described as above.

The target in experiment [3] is T4, human B7-1 K127D on cells (Homo sapiens, UniProt P33681 35-280).
T4 construct: mCherry-tagged point mutant; also called LYS127 ASP
T4 chain: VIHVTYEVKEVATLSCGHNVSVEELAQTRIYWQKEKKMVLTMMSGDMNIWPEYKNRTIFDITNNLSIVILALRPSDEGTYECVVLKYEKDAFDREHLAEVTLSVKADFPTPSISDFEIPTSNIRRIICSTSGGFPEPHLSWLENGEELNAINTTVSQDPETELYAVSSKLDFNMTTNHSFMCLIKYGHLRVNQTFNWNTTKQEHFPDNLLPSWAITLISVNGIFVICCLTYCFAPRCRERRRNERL
The description is as above.

Another experiment concerns the target T5, human B7-1 R63D on cells (Homo sapiens, UniProt P33681 35-280).
T5 construct: mCherry-tagged point mutant; also called ARG63 ASP
T5 chain: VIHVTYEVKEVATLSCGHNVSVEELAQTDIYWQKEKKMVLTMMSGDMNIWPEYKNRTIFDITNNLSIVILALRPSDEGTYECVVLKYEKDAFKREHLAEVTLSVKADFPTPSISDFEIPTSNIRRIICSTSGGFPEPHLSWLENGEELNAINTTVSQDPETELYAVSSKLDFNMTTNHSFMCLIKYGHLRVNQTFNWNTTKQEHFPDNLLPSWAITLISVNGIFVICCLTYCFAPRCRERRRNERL
Described as above.

Experiment [4] has as its target human B7-1 (CD80), full length, expressed on HEK 293 cells (Homo sapiens) (UniProt P33681). The experiment is described as above.
The target of experiment [5] is T6, human B7-1 (CD80), full length, expressed on HEK 293 cells (Homo sapiens, UniProt P33681 35-280).
T6 construct: also called hB7-1; B7-1-mCherry
T6 sequence: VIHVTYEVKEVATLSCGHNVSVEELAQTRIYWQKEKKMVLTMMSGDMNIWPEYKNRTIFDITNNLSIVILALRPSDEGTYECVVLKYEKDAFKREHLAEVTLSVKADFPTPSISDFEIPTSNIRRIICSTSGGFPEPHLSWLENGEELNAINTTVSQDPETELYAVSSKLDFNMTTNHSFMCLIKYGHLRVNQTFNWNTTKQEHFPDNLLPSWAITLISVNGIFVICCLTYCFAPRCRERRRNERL
The experiment is described as above.

The target of experiment [6] is T7, protein tyrosine phosphatase receptor type F expressed on cells (human, UniProt P10586 30-1907).
T7 construct: whole, on cells; also called PTPRF; PTPRF mCherry
The experiment in a line: cell-cell screen, flow cytometry. On the procedure:
(§1) As illustrated, cells were transfected with expression cassettes expressing labeled receptors or labeled ligands, receptor-expressing cells were mixed with ligand-expressing cells and cell-to-cell binding was monitored by detecting the labels associated with the receptor and the ligand. […] Binding was detected using an anti-mIgG2A ab and flow cytometry. The binding curves were fit and the Bmax, EC50, and hill coefficient were calculated using the equation Y=Bmax*Xh/(Kdh+Xh).

Experiment [7] has as its target B1. The experiment in a line: cell-cell screen, flow cytometry. On the procedure: as §1
For another experiment, the target named is T8, mouse CTLA-4-mIgG2a (mouse, UniProt P09793 36-161).
T8 construct: not shown: mIgG2a Fc
The experiment in a line: Fc fusion on cells expressing chimera B7-1-GFP, flow cytometry. On the procedure:
(§2) The arrow identifies the swapped exons. […] Binding was assessed using an anti mIgG2a-647 labeled antibody and flow cytometry.

The experiment “p75NTR-mIgG2a” has as its target B5. The experiment is described as above. The protocol: as §2
For experiment [8], the target named is T9, B7-1-hIgG1-biotin (human, UniProt P33681 35-233, biotin on the AVI tag (BirA)).
T9 construct: Loaded on streptavidin beads; the paragraph gives residues only; also called B7-1-Fc-biotin; hB7-1 (residues 35-233) hIgG1-His10-AVI; not shown: C-terminal 10xHis and AVI tagged hIgG1 Fc domain
T9 chain: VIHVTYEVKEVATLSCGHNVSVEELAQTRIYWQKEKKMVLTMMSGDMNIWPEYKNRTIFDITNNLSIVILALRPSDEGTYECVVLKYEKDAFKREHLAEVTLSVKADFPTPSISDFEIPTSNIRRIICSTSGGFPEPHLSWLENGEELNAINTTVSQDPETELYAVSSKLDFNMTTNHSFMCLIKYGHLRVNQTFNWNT
The experiment in a line: p75-mIgG2A titrated on streptavidin beads coated with B7-1-hIgG1-biotin; anti-mIgG2A, flow cytometry. The source says:
(§3) Binding was detected by flow cytometry on a SONY Spectral Analyzer (SA 3800). Binding curves were fit using the equation Y=Bmax*Xh/(Kdh+Xh).

Experiment [9] addresses T9, B7-1-hIgG1-biotin. The experiment in a line: Fc fusions titrated on streptavidin beads coated with B7-1-hIgG1-biotin, flow cytometry.
From the text: as §3

T8 sequence (P09793 36-161): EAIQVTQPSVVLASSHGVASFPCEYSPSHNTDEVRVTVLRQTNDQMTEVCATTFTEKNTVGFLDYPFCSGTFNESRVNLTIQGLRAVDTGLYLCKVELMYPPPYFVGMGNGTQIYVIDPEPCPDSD

With “human p75NTR mutant printed ARG166H on cells (from UniProt P08138 29-427) (receptor)”, the percent binding was 25% with human B7-1 N82E on cells; 12% in experiment [1]; 26% in [2]; 26% in experiment [3]; 8% with human B7-1 R63D on cells; 66% in experiment [4].
On to B1, for which the percent binding in [5] stood at 100%; with human B7-1 N82E on cells it was 25%; in experiment [1] it was 20%; in experiment [2], 21%; in [3], 26%; in the experiment with human B7-1 R63D on cells, 30%. The binding result in [6] is recorded as “binds”.

B2: ICOSL expressed on cells (ligand, human, UniProt O75144 19-302, looked up)
chain: DTQEKEVRAMVGSDVELSCACPEGSRFDLNDVYVYWQTSESKTVVTYHIPQNSSLENVDSRYRNRALMSPAGMLRGDFSLRLFNVTPQDEQKFHCLVLSQSLGFQEVLSVEVTLHVAANFSVPVVSAPHSPSQDELTFTCTSINGYPRPNVYWINKTDNSLLDQALQNDTVFLNMRGLYDVVSVLRIARTPSVNIGCCIENVLLQQNLTVGSQTGNDIGERDKITENPVSTGEKNAATWSILAVLCLLVVVAVAIGWVCRDRCLQHSYAGAWAVSPETELTGHV
notes: whole, on cells
Take B2: the binding result in experiment [7] is recorded as “no binding”.

B3: B7-2 expressed on cells (ligand, human, UniProt P42081 24-329, looked up)
chain: APLKIQAYFNETADLPCQFANSQNQSLSELVVFWQDQENLVLNEVYLGKEKFDSVHSKYMGRTSFDSDSWTLRLHNLQIKDKGLYQCIIHHKKPTGMIRIHQMNSELSVLANFSQPEIVPISNITENVYINLTCSSIHGYPEPKKMSVLLRTKNSTIEYDGVMQKSQDNVTELYDVSISLSVSFPDVTSNMTIFCILETDKTRLLSSPFSIELEDPQPPPDHIPWITAVLPTVIICVMVFCLILWKWKKKKRPRNSYKCGTNTMEREESEQTKKREKIHIPERSDEAQRVFKSSKTSSCDKSDTCF
notes: whole, on cells
Turning to B3, the binding result in [7] is listed as “no binding”.

B4: chimeric human-mouse B7-1 protein expressed on HEK 293 cells (ligand)
chain: VIHVTKEVKEVATLSCGHNVSVEELAQTRIYWQKEKKMVLTMMSGDMNIWPEYKNRTIFDITNNLSIVILALRPSDEGTYECVVLKYEKDAFKREHLAEVTLSVKADFSTPNITESGNPSADTKRITCFASGGFPKPRFSWLENGRELPGINTTISQDPESELYTISSQLDFNTTRNHTIKCLIKYGDAHVSEDFTWEKPPEDPPDSKNTLVLFGAGFGAVITVVVIVVIIKCFCKHRSCFRRNEASRETNNSLTFGPEEALAEQTVFL
notes: also called human-mouse chimera B7-1-GFP; h:mB7-1
As to B4, the binding result with mouse CTLA-4-mIgG2a and in the experiment with p75NTR-mIgG2a was “binds” throughout.
In turn, B5 showed an EC50 with B7-1-hIgG1-biotin [8] of 16 nM. The “fold higher EC50 than B7-1:CTLA-4” value with B7-1-hIgG1-biotin [9] was roughly 30 fold.

For the origin of these results see patent publication US20240201167A1 (ALBERT EINSTEIN COLLEGE OF MEDICINE, published 2024).
